Results from PMC9352680, “A comprehensive thermodynamic model for RNA binding by the Saccharomyces cerevisiae Pumilio protein PUF4”.
Numbering of substitutions follows the chain as printed. Names and notes keep the numbering of the source.

T1: PUF4 RNA-binding domain (Saccharomyces cerevisiae, UniProt P25339 537-888)
T1 sequence: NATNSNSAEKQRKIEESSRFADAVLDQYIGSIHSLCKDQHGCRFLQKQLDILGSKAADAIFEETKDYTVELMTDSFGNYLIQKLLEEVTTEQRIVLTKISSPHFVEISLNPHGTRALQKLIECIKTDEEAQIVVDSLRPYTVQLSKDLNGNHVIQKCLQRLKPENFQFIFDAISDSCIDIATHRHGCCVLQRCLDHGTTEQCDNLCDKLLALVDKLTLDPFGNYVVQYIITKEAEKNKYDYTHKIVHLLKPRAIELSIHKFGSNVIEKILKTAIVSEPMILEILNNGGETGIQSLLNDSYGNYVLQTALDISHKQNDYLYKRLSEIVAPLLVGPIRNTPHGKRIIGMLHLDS

B1: Id_ii_S2_P4E.3_K4.2_C4.2_[C-2A]_[T-1C]_H4.2_A4.1_F4.1_T4.2_[G10A] (ssRNA)
RNA: UUUGAUUAAUAUGAUAUCGUUCUUUCUACUAUAUAUUAAUUUCUUUCUCGAUAUCAUAUUAAUCUUU
B2: Id_ii_S2_P4E.3_K4.2_C4.2_[C-2A]_H4.2_A4.1_F4.1_T4.2_[G10T]_[T11C] (ssRNA)
RNA: B1 RNA with C29U, A39U, U40C
B3: Id_ii_S2_P4E.3_K4.2_C4.2_[C-2A]_[T-1A]_H4.2_A4.1_F4.1_T4.2_[G10A]_[T11A] (ssRNA)
RNA: B1 RNA with C29A, U40A
B4: Id_ii_S2_P4E.3_K4.2_C4.2_[C-2A]_H4.2_A4.1_F4.1_T4.2_[G10C]_[T11G] (ssRNA)
RNA: B1 RNA with C29U, A39C, U40G
B5: Id_ii_S2_P4E.3_K4.2_C4.2_[C-2A]_[T-1A]_H4.2_A4.1_F4.1_T4.2_[G10A]_[T11G] (ssRNA)
RNA: B1 RNA with C29A, U40G
B6: Id_ii_S2_P4E.3_K4.2_C4.2_H4.2_A4.1_F4.1_T4.2_[G10T]_[T11C] (ssRNA)
RNA: B1 RNA with A28C, C29U, A39U, U40C
B7: Id_ii_S2_P4E.3_K4.2_C4.2_[T-1A]_H4.2_A4.1_F4.1_T4.2_[G10A]_[T11C] (ssRNA)
RNA: B1 RNA with A28C, C29A, U40C
B8: Id_ii_S2_P4E.3_K4.2_C4.2_[C-2A]_[T-1A]_H4.2_A4.1_F4.1_T4.2_[G10C]_[T11C] (ssRNA)
RNA: B1 RNA with C29A, A39C, U40C
B9: Id_ii_S2_P4E.3_K4.2_C4.2_[T-1C]_H4.2_A4.1_F4.1_T4.2_[G10T]_[T11A] (ssRNA)
RNA: B1 RNA with A28C, A39U, U40A
B10: Id_ii_S2_P4E.3_K4.2_C4.2_[T-1C]_H4.2_A4.1_F4.1_T4.2_[G10C]_[T11A] (ssRNA)
RNA: B1 RNA with A28C, A39C, U40A
B11: Id_ii_S2_P4E.3_K4.2_C4.2_[C-2A]_H4.2_A4.1_F4.1_T4.2_[G10C]_[T11A] (ssRNA)
RNA: B1 RNA with C29U, A39C, U40A
B12: Id_ii_S2_P4E.3_K4.2_C4.2_[T-1A]_H4.2_A4.1_F4.1_T4.2_[G10A]_[T11G] (ssRNA)
RNA: B1 RNA with A28C, C29A, U40G
B13: Id_ii_S2_P4E.3_K4.2_C4.2_[C-2A]_[T-1A]_H4.2_A4.1_F4.1_T4.2_[G10T] (ssRNA)
RNA: B1 RNA with C29A, A39U
B14: Id_ii_S2_P4E.3_K4.2_C4.2_H4.2_A4.1_F4.1_T4.2_[G10A]_[T11C] (ssRNA)
RNA: B1 RNA with A28C, C29U, U40C
B15: Id_ii_S2_P4E.3_K4.2_C4.2_[T-1C]_H4.2_A4.1_F4.1_T4.2_[G10C]_[T11G] (ssRNA)
RNA: B1 RNA with A28C, A39C, U40G
B16: Id_ii_S2_P4E.3_K4.2_C4.2_[T-1A]_H4.2_A4.1_F4.1_T4.2_[G10A] (ssRNA)
RNA: B1 RNA with A28C, C29A
B17: Id_ii_S2_P4E.3_K4.2_C4.2_[T-1A]_H4.2_A4.1_F4.1_T4.2_[G10C] (ssRNA)
RNA: B1 RNA with A28C, C29A, A39C
B18: Id_ii_S2_P4E.3_K4.2_C4.2_[C-2A]_H4.2_A4.1_F4.1_T4.2_[G10C] (ssRNA)
RNA: B1 RNA with C29U, A39C
B19: Id_ii_S2_P4E.3_K4.2_C4.2_[T-1C]_H4.2_A4.1_F4.1_T4.2_[G10A]_[T11A] (ssRNA)
RNA: B1 RNA with A28C, U40A
B20: Id_ii_S2_P4E.3_K4.2_C4.2_[T-1C]_H4.2_A4.1_F4.1_T4.2_[G10T]_[T11G] (ssRNA)
RNA: B1 RNA with A28C, A39U, U40G
B21: Id_ii_S2_P4E.3_K4.2_C4.2_H4.2_A4.1_F4.1_T4.2_[G10T] (ssRNA)
RNA: B1 RNA with A28C, C29U, A39U
B22: Id_ii_S2_P4E.3_K4.2_C4.2_H4.2_A4.1_F4.1_T4.2_[G10C]_[T11A] (ssRNA)
RNA: B1 RNA with A28C, C29U, A39C, U40A
B23: Id_ii_S2_P4E.3_K4.2_C4.2_[T-1C]_H4.2_A4.1_F4.1_T4.2_[G10T] (ssRNA)
RNA: B1 RNA with A28C, A39U
B24: Id_ii_S2_P4E.3_K4.2_C4.2_[T-1A]_H4.2_A4.1_F4.1_T4.2_[G10T] (ssRNA)
RNA: B1 RNA with A28C, C29A, A39U
B25: Id_ii_S2_P4E.3_K4.2_C4.2_[C-2A]_H4.2_A4.1_F4.1_T4.2_[G10C]_[T11C] (ssRNA)
RNA: B1 RNA with C29U, A39C, U40C
B26: Id_ii_S2_P4E.3_K4.2_C4.2_[C-2A]_H4.2_A4.1_F4.1_T4.2_[G10A]_[T11C] (ssRNA)
RNA: B1 RNA with C29U, U40C
B27: Id_ii_S2_P4E.3_K4.2_C4.2_[C-2A]_[T-1A]_H4.2_A4.1_F4.1_T4.2_[G10C] (ssRNA)
RNA: B1 RNA with C29A, A39C
B28: Id_ii_S2_P4E.3_K4.2_C4.2_[T-1A]_H4.2_A4.1_F4.1_T4.2_[G10A]_[T11A] (ssRNA)
RNA: B1 RNA with A28C, C29A, U40A
B29: Id_ii_S2_P4E.3_K4.2_C4.2_[T-1A]_H4.2_A4.1_F4.1_T4.2_[G10C]_[T11C] (ssRNA)
RNA: B1 RNA with A28C, C29A, A39C, U40C
B30: Id_ii_S2_P4E.3_K4.2_C4.2_[C-2A]_H4.2_A4.1_F4.1_T4.2_[G10T]_[T11G] (ssRNA)
RNA: B1 RNA with C29U, A39U, U40G
B31: Id_ii_S2_P4E.3_K4.2_C4.2_[T-1G]_H4.2_A4.1_F4.1_T4.2_[G10A]_[T11A] (ssRNA)
RNA: B1 RNA with A28C, C29G, U40A
B32: Id_ii_S2_P4E.3_K4.2_C4.2_[T-1G]_H4.2_A4.1_F4.1_T4.2_[G10A]_[T11C] (ssRNA)
RNA: B1 RNA with A28C, C29G, U40C
B33: Id_ii_S2_P4E.3_K4.2_C4.2_[T-1G]_H4.2_A4.1_F4.1_T4.2_[G10T] (ssRNA)
RNA: B1 RNA with A28C, C29G, A39U
B34: Id_ii_S2_P4E.3_K4.2_C4.2_[T-1A]_H4.2_A4.1_F4.1_T4.2_[G10C]_[T11A] (ssRNA)
RNA: B1 RNA with A28C, C29A, A39C, U40A
B35: Id_ii_S2_P4E.3_K4.2_C4.2_[T-1A]_H4.2_A4.1_F4.1_T4.2_[G10C]_[T11G] (ssRNA)
RNA: B1 RNA with A28C, C29A, A39C, U40G
B36: Id_ii_S2_P4E.3_K4.2_C4.2_[T-1A]_H4.2_A4.1_F4.1_T4.2_[T11G] (ssRNA)
RNA: B1 RNA with A28C, C29A, A39G, U40G
B37: Id_ii_S2_P4E.3_K4.2_C4.2_H4.2_A4.1_F4.1_T4.2_[G10C]_[T11G] (ssRNA)
RNA: B1 RNA with A28C, C29U, A39C, U40G
B38: Id_ii_S2_P4E.3_K4.2_C4.2_[T-1G]_H4.2_A4.1_F4.1_T4.2_[G10A]_[T11G] (ssRNA)
RNA: B1 RNA with A28C, C29G, U40G
B39: Id_ii_S2_P4E.3_K4.2_C4.2_[T-1A]_H4.2_A4.1_F4.1_T4.2 (ssRNA)
RNA: B1 RNA with A28C, C29A, A39G
B40: Id_ii_S2_P4E.3_K4.2_C4.2_[C-2A]_[T-1A]_H4.2_A4.1_F4.1_T4.2_[G10C]_[T11A] (ssRNA)
RNA: B1 RNA with C29A, A39C, U40A
B41: Id_ii_S2_P4E.3_K4.2_C4.2_[T-1C]_H4.2_A4.1_F4.1_T4.2_[G10A] (ssRNA)
RNA: B1 RNA with A28C

Molecular target: T1, PUF4 RNA-binding domain
Experiment: Mg; RNA-MaP; 20 mM Na-HEPES pH 7.4, 30 mM KOAc, 0.75 mM MgCl2, 0.1% Tween-20, 5% glycerol, 0.1 mg/mL BSA, 2 mM DTT; 25 C; 0.0125-409.6 nM protein
Conditions: tags: N-His6-TEV cleaved; C-SNAP kept, Cy3B-labelled; label: tethered on chip by stalled RNA polymerase

Binder | Kd [nM]
B1 | 14.7
B2 | 12.2
B3 | 233
B4 | 25.3
B5 | 661
B6 | 4.61
B7 | 17.8
B8 | 56.4
B9 | 17
B10 | 9.95
B11 | 18.2
B12 | 360
B13 | 214
B14 | 14
B15 | 9.56
B16 | 10.1
B17 | 7.44
B18 | 14.2
B19 | 12.2
B20 | 5.86
B21 | 3.81
B22 | 8.35
B23 | 3.61

Binder | Kd [nM]
B24 | 8.24
B25 | 12.8
B26 | 40.9
B27 | 35.9
B28 | 37.6
B29 | 10.3
B30 | 26.1
B31 | 20.5
B32 | 22.8
B33 | 7.25
B34 | 16.3
B35 | 32.8
B36 | 46.4
B37 | 18.8
B38 | 266
B39 | 8.89
B40 | 160
B41 | 7.32
UCUCUUUGUCUUAUUCUCUCUU (ssRNA) [Ib_S1_P5E.1_K5.1_C5.1_H5.1_[A4C]_A5.1_F5.1_[A10C]_T5.1] | 1350
UCUCUUUGUUUUAUUCUCUCUU (ssRNA) [Ib_S1_P5E.1_K5.1_C5.1_H5.1_[A4T]_A5.1_F5.1_[A10C]_T5.1] | 899
UCUCUUUGUUUUAUUGUCUCUU (ssRNA) [Ib_S1_P5E.1_K5.1_C5.1_H5.1_[A4T]_A5.1_F5.1_[A10G]_T5.1] | 378
UCUCUUUGUCUUAUUGUCUCUU (ssRNA) [Ib_S1_P5E.1_K5.1_C5.1_H5.1_[A4C]_A5.1_F5.1_[A10G]_T5.1] | 840
